Test results: PMC3178552

Key:
[1] = biological target: vesicular stomatitis virus nucleoprotein lacking its 21 N-terminal residues (N[change]), MBP tag removed (vesicular stomatitis virus) (UniProt P03521); assay: SEC-MALS
[2] = biological target: vesicular stomatitis virus nucleoprotein lacking its 21 N-terminal residues (N[change]), MBP tag removed (vesicular stomatitis virus) (UniProt P03521); assay: crystal structure

Substance | stoichiometry N [1] | stoichiometry N [2]
P60: the first 60 amino acids of VSV phosphoprotein P, a two-amino acid linker and a C-terminal His6-tag (from UniProt P03520 1-60) (peptide) | 1 | 
vesicular stomatitis virus nucleoprotein lacking its 21 N-terminal residues (N[change]), MBP tag removed (from UniProt P03521 22-422) (domain or fragment) |  | 10
